Residue numbers refer to the chain shown, from its start. Numbers in names are those of the source.
B1: H183/L072 VL Y32I (antibody, name in Kabat numbering, V domains shown)
VH: QVQLVESGGGLVQPGRSLRLSCAASGFTFSNAWMHWVRQAPGKGLEWVAQIKDKGNAYAAYYAPSVKGRFTISRDDSKNSIYLQMNSLKTEDTAVYYCHYVHYASASTVLPAFGVDAWGQGTTVTVSS
VL: DIVMTQSPLSLPVTPGEPASISCQASQELVHMNRNTILHWYQQKPGQAPRLLIYKVSNRFPGVPDRFSGSGSGTDFTLKISRVEAEDVGVYYCAQGTSVPFTFGQGTKLEIK
notes: Dual-Ig
B2: H183/L072 VL Y32L (antibody, name in Kabat numbering, V domains shown)
VH: B1 VH
VL: B1 VL with I37L
notes: Dual-Ig
B3: H183/L072 VL Y32M (antibody, name in Kabat numbering, V domains shown)
VH: B1 VH
VL: B1 VL with I37M
notes: Dual-Ig
B4: H183/L072 VL Y32N (antibody, name in Kabat numbering, V domains shown)
VH: B1 VH
VL: B1 VL with I37N
notes: Dual-Ig
B5: H183/L072 VL Y32P (antibody, name in Kabat numbering, V domains shown)
VH: B1 VH
VL: B1 VL with I37P
notes: Dual-Ig
B6: H183/L072 VL Y32Q (antibody, name in Kabat numbering, V domains shown)
VH: B1 VH
VL: B1 VL with I37Q
notes: Dual-Ig
B7: H183/L072 VL Y32V (antibody, name in Kabat numbering, V domains shown)
VH: B1 VH
VL: B1 VL with I37V
notes: Dual-Ig
B8: H183/L072 VL Y32W (antibody, name in Kabat numbering, V domains shown)
VH: B1 VH
VL: B1 VL with I37W
notes: Dual-Ig
B9: H183/L072 VL S26A (antibody, name in Kabat numbering, V domains shown)
VH: B1 VH
VL: B1 VL with S26A, I37Y
B10: H183/L072 VL A25D (antibody, name in Kabat numbering, V domains shown)
VH: B1 VH
VL: B1 VL with A25D, I37Y
B11: H183/L072 VL A25E (antibody, name in Kabat numbering, V domains shown)
VH: B1 VH
VL: B1 VL with A25E, I37Y
B12: H183/L072 VL A25G (antibody, name in Kabat numbering, V domains shown)
VH: B1 VH
VL: B1 VL with A25G, I37Y
B13: H183/L072 VL A25H (antibody, name in Kabat numbering, V domains shown)
VH: B1 VH
VL: B1 VL with A25H, I37Y
B14: H183/L072 VL A25I (antibody, name in Kabat numbering, V domains shown)
VH: B1 VH
VL: B1 VL with A25I, I37Y
B15: H183/L072 VL A25K (antibody, name in Kabat numbering, V domains shown)
VH: B1 VH
VL: B1 VL with A25K, I37Y
B16: H183/L072 VL A25M (antibody, name in Kabat numbering, V domains shown)
VH: B1 VH
VL: B1 VL with A25M, I37Y
B17: H183/L072 VL A25N (antibody, name in Kabat numbering, V domains shown)
VH: B1 VH
VL: B1 VL with A25N, I37Y
B18: H183/L072 VL A25P (antibody, name in Kabat numbering, V domains shown)
VH: B1 VH
VL: B1 VL with A25P, I37Y
B19: H183/L072 VL A25Q (antibody, name in Kabat numbering, V domains shown)
VH: B1 VH
VL: B1 VL with A25Q, I37Y
B20: H183/L072 VL A25R (antibody, name in Kabat numbering, V domains shown)
VH: B1 VH
VL: B1 VL with A25R, I37Y
B21: H183/L072 VL A25S (antibody, name in Kabat numbering, V domains shown)
VH: B1 VH
VL: B1 VL with A25S, I37Y
B22: H183/L072 VL A25T (antibody, name in Kabat numbering, V domains shown)
VH: B1 VH
VL: B1 VL with A25T, I37Y
B23: H183/L072 VL A25V (antibody, name in Kabat numbering, V domains shown)
VH: B1 VH
VL: B1 VL with A25V, I37Y
B24: H183/L072 VL A89D (antibody, name in Kabat numbering, V domains shown)
VH: B1 VH
VL: B1 VL with I37Y, A94D
B25: H183/L072 VL A89E (antibody, name in Kabat numbering, V domains shown)
VH: B1 VH
VL: B1 VL with I37Y, A94E
B26: H183/L072 VL A89F (antibody, name in Kabat numbering, V domains shown)
VH: B1 VH
VL: B1 VL with I37Y, A94F
B27: H183/L072 VL A89G (antibody, name in Kabat numbering, V domains shown)
VH: B1 VH
VL: B1 VL with I37Y, A94G
B28: H183/L072 VL A89H (antibody, name in Kabat numbering, V domains shown)
VH: B1 VH
VL: B1 VL with I37Y, A94H
B29: H183/L072 VL A89K (antibody, name in Kabat numbering, V domains shown)
VH: B1 VH
VL: B1 VL with I37Y, A94K
B30: H183/L072 VL A89M (antibody, name in Kabat numbering, V domains shown)
VH: B1 VH
VL: B1 VL with I37Y, A94M
B31: H183/L072 VL A89Q (antibody, name in Kabat numbering, V domains shown)
VH: B1 VH
VL: B1 VL with I37Y, A94Q
B32: H183/L072 VL A89S (antibody, name in Kabat numbering, V domains shown)
VH: B1 VH
VL: B1 VL with I37Y, A94S
B33: H183/L072 VL A89T (antibody, name in Kabat numbering, V domains shown)
VH: B1 VH
VL: B1 VL with I37Y, A94T
B34: H183/L072 VL A89V (antibody, name in Kabat numbering, V domains shown)
VH: B1 VH
VL: B1 VL with I37Y, A94V
B35: H183/L072 VL A89W (antibody, name in Kabat numbering, V domains shown)
VH: B1 VH
VL: B1 VL with I37Y, A94W
B36: H183/L072 VL E27aA (antibody, name in Kabat numbering, V domains shown)
VH: B1 VH
VL: B1 VL with E28A, I37Y
B37: H183/L072 VL E27aD (antibody, name in Kabat numbering, V domains shown)
VH: B1 VH
VL: B1 VL with E28D, I37Y
B38: H183/L072 VL E27aF (antibody, name in Kabat numbering, V domains shown)
VH: B1 VH
VL: B1 VL with E28F, I37Y
B39: H183/L072 VL E27aG (antibody, name in Kabat numbering, V domains shown)
VH: B1 VH
VL: B1 VL with E28G, I37Y
B40: H183/L072 VL E27aH (antibody, name in Kabat numbering, V domains shown)
VH: B1 VH
VL: B1 VL with E28H, I37Y
B41: H183/L072 VL E27aI (antibody, name in Kabat numbering, V domains shown)
VH: B1 VH
VL: B1 VL with E28I, I37Y
B42: H183/L072 VL E27aK (antibody, name in Kabat numbering, V domains shown)
VH: B1 VH
VL: B1 VL with E28K, I37Y
B43: H183/L072 VL E27aL (antibody, name in Kabat numbering, V domains shown)
VH: B1 VH
VL: B1 VL with E28L, I37Y
B44: H183/L072 VL E27aM (antibody, name in Kabat numbering, V domains shown)
VH: B1 VH
VL: B1 VL with E28M, I37Y

target: T1, Human CD137 ECD (human); experiment: Biacore SPR, vs parent H183/L072
T1 construct: entry includes C-terminal His-tag and biotin acceptor peptide; also called human CD137 extracellular domain; 4-1BB
T1 sequence (chain, as listed by the source limits assumed): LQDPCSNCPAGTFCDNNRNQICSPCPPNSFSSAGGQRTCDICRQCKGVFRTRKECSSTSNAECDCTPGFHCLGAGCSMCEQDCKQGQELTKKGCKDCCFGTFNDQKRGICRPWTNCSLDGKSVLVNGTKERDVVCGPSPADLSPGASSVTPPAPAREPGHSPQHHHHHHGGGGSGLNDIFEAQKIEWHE

Binder	fold change of affinity
B1	0 fold
B2	0.2 fold
B3	0 fold
B4	0.2 fold
B5	0 fold
B6	0.2 fold
B7	0 fold
B8	0.7 fold

Target: T2, Human CD3eg linker (human)
T2 construct: Single-chain construct; also called recombinant human CD3
T2 chain: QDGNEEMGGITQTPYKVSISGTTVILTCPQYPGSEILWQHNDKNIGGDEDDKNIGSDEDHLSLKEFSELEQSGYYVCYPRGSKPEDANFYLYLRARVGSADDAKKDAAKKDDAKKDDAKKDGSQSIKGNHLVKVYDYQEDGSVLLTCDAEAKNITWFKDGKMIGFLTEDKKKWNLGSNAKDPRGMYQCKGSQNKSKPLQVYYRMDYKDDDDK
Experiment: SPR; fold vs parent H183/L072

Binder	fold change of affinity
B9	0.8 fold
B10	0 fold
B11	0 fold
B12	0.9 fold
B13	0 fold
B14	0.3 fold
B15	0 fold
B16	0 fold
B17	0.5 fold
B18	1.2 fold
B19	0 fold
B20	0 fold
B21	1.3 fold
B22	1.1 fold
B23	0.9 fold
B24	0 fold
B25	0 fold
B26	0.2 fold

Binder	fold change of affinity
B27	0.7 fold
B28	0 fold
B29	1.1 fold
B30	0.1 fold
B31	0.2 fold
B32	0.6 fold
B33	0 fold
B34	0.4 fold
B35	0.1 fold
B36	1.2 fold
B37	1.1 fold
B38	1.1 fold
B39	1.4 fold
B40	1.4 fold
B41	1.1 fold
B42	1.1 fold
B43	1.2 fold
B44	1.2 fold

— US20210388087A1 (Chugai, published 2021)
